Data published in publication PMC8716928.
Values belong to the binder of their own block, whether it stands above or below them.

Biological target: Fragment F109–221 of GvpF, split-GFP fusion (Halobacterium salinarum)
Test: split reporter (BiFC, NanoBiT); split-GFP (mGFP2) in Hfx. volcanii transformants, entire Gvp proteins and fragments (Figure 7); arrangement of the GFP portions not stated; relative fluorescence (rf) of cells against untransformed WR340

- relative fluorescence (rf): < 4 rf
B1: GvpA, entire protein, split-GFP fusion (natural protein)
chain: MAQPDSSGLAEVLDRVLDKGVVVDVWARVSLVGIEILTVEARVVAASVDTFLHYAEEIAKIEQAELTAGAEAAPEA

- relative fluorescence (rf): < 4 rf
Binder: MAQPDSSGLAEVLDRVLDKGVV [Fragment A1–22 of GvpA, split-GFP fusion]
